# In FireProtDB (doi:10.1021/bi00150a028):
# B1: Lysozyme C wild type, P61626 (protein)
# chain: MKALIVLGLVLLSVTVQGKVFERCELARTLKRLGMDGYRGISLANWMCLAKWESGYNTRATNYNAGDRSTDYGIFQINSRYWCNDGKTPGAVNACHLSCSALLQDNIADAVACAKRVVRDPQGIRAWVAWRNRCQNRDVRQYVQGCGV
# Details: Homo sapiens, pH 3, Thermal, DSC, glycine-HCl 0.05 M, reversible: yes, whole UniProt chain shown
protein,measurement,setting,value
B1,heat capacity change of unfolding,57 °C,1.55 kcal/mol/K
same,unfolding enthalpy (calorimetric),57 °C,101 kcal/mol
same,unfolding free energy,57 °C,4.6 kcal/mol
same,Tm,,71.4 °C
